Reference: patent US20220042033A1, “COMPOSITION AND METHOD FOR CONFERRING AND/OR ENHANCING TOLERANCE AGAINST HERBICIDES BY USING VARIANTS OF PPO” (FarmHannong Co., Ltd., priority 2017, published 2022)
Where a chain is given by its changes, count along the chain named. In names and notes the source's numbering stands.

B1: I168C + I311M + M365I: MxPPO (SEQ ID NO: 3) variant (protein)
chain: MHHMPRTTGMNVAVVGGGISGLAVAHHLRSRGTDAVLLESSARLGGAVGTHALAGYLVEQGPNSFLDREPATRALAAALNLEGRIRAADPAAKRRYVYTRGRLRSVPASPPAFLASDILPLGARLRVAGELFSRRAPEGVDESLAAFGRRHLGHRATQVLLDAVQTGCYAGDVEQLSVAATFPMLVKMEREHRSLILGAIRAQKAQRQAALPAGTAPKLSGALSTFDGGLQVLIDALAASLGDAAHVGARVEGLAREDGGWRLIIEEHGRRAELSVAQVVLAAPAHATAKLLRPLDDALAALVAGIAYAPMAVVHLGFDAGTLPAPDGFGFLVPAEEQRRMLGAIHASTTFPFRAEGGRVLYSCIVGGARQPGLVEQDEDALAALAREELKALAGVTARPSFTRVFRWPLGIPQYNLGHLERVAAIDAALQRLPGLHLIGNAYKGVGLNDCIRNAAQLADALVAGNTSHAP
modifications: Synthetic (Protoporphyrinogen IX oxidase (MxPPO) of Myxococcus xanthus)
B2: L332T + M365V: MxPPO (SEQ ID NO: 3) variant (protein)
chain: B1 chain with C168I, M311I, L332T, I365V
modifications: Synthetic (Protoporphyrinogen IX oxidase (MxPPO) of Myxococcus xanthus)
B3: I311M + M365I: MxPPO (SEQ ID NO: 3) variant (protein)
chain: B1 chain with C168I
modifications: Synthetic (Protoporphyrinogen IX oxidase (MxPPO) of Myxococcus xanthus)
B4: I311M + M365V: MxPPO (SEQ ID NO: 3) variant (protein)
chain: B1 chain with C168I, I365V
modifications: Synthetic (Protoporphyrinogen IX oxidase (MxPPO) of Myxococcus xanthus)
B5: A170C + M365V: MxPPO (SEQ ID NO: 3) variant (protein)
chain: B1 chain with C168I, A170C, M311I, I365V
modifications: Synthetic (Protoporphyrinogen IX oxidase (MxPPO) of Myxococcus xanthus)
B6: I168C + L332T + M365V: MxPPO (SEQ ID NO: 3) variant (protein)
chain: B1 chain with M311I, L332T, I365V
modifications: Synthetic (Protoporphyrinogen IX oxidase (MxPPO) of Myxococcus xanthus)
B7: A170L: MxPPO (SEQ ID NO: 3) variant (protein)
chain: B1 chain with C168I, A170L, M311I, I365M
modifications: Synthetic (Protoporphyrinogen IX oxidase (MxPPO) of Myxococcus xanthus)
B8: I311M: MxPPO (SEQ ID NO: 3) variant (protein)
chain: B1 chain with C168I, I365M
modifications: Synthetic (Protoporphyrinogen IX oxidase (MxPPO) of Myxococcus xanthus)
B9: R95A + I168C + M365I: MxPPO (SEQ ID NO: 3) variant (protein)
chain: B1 chain with R95A, M311I
modifications: Synthetic (Protoporphyrinogen IX oxidase (MxPPO) of Myxococcus xanthus)
B10: R95A + A170C + M365I: MxPPO (SEQ ID NO: 3) variant (protein)
chain: B1 chain with R95A, C168I, A170C, M311I
modifications: Synthetic (Protoporphyrinogen IX oxidase (MxPPO) of Myxococcus xanthus)
B11: A170C + M365I: MxPPO (SEQ ID NO: 3) variant (protein)
chain: B1 chain with C168I, A170C, M311I
modifications: Synthetic (Protoporphyrinogen IX oxidase (MxPPO) of Myxococcus xanthus)
B12: L332T + M365I: MxPPO (SEQ ID NO: 3) variant (protein)
chain: B1 chain with C168I, M311I, L332T
modifications: Synthetic (Protoporphyrinogen IX oxidase (MxPPO) of Myxococcus xanthus)
B13: R95A + I311M + M365V: MxPPO (SEQ ID NO: 3) variant (protein)
chain: B1 chain with R95A, C168I, I365V
modifications: Synthetic (Protoporphyrinogen IX oxidase (MxPPO) of Myxococcus xanthus)
B14: I168C + A170C + M365V: MxPPO (SEQ ID NO: 3) variant (protein)
chain: B1 chain with A170C, M311I, I365V
modifications: Synthetic (Protoporphyrinogen IX oxidase (MxPPO) of Myxococcus xanthus)
B15: R95A + L332T + M365I: MxPPO (SEQ ID NO: 3) variant (protein)
chain: B1 chain with R95A, C168I, M311I, L332T
modifications: Synthetic (Protoporphyrinogen IX oxidase (MxPPO) of Myxococcus xanthus)

Tested on: MxPPO
Experiment: Herbicide tolerance test of MxPPO wild type and variants in PPO-deficient E. coli BT3(ΔPPO), growth on herbicide-containing LB agar
Format: cell-based, Myxococcus xanthus
Conditions: relative to MxPPO WT, light, 2000 μM (FIG. 14)
Procedure: Then, the extent of tolerance was evaluated.

Row | Molecule | Herbicide tolerance, tiafenacil
1 | B1 | + (1-9 fold higher tolerance)
2 | B2 | + (1-9 fold higher tolerance)
3 | B3 | + (1-9 fold higher tolerance)
4 | B4 | + (1-9 fold higher tolerance)
5 | B5 | + (1-9 fold higher tolerance)
6 | B6 | + (1-9 fold higher tolerance)

Same assay, conditions: relative to MxPPO WT, light, up to 100 μM (FIG. 13)

Row | Molecule | Herbicide tolerance, flumioxazin
7 | B7 | ++ (10-99 fold higher tolerance)
8 | B8 | ++ (10-99 fold higher tolerance)

Same assay, conditions: relative to MxPPO WT, light, up to 200 μM (FIG. 13)

Row | Molecule | Herbicide tolerance, saflufenacil
9 | B7 | ++ (10-99 fold higher tolerance)
10 | B8 | ++ (10-99 fold higher tolerance)

Same assay, conditions: relative to MxPPO WT, light, up to 400 μM (FIGS. 15-17)

Row | Molecule | Herbicide tolerance, flumioxazin
11 | B1 | ++ (10-99 fold higher tolerance)
12 | B2 | + (1-9 fold higher tolerance)
13 | B9 | + (1-9 fold higher tolerance)
14 | B10 | + (1-9 fold higher tolerance)
15 | B11 | + (1-9 fold higher tolerance)
16 | B3 | ++ (10-99 fold higher tolerance)
17 | B12 | + (1-9 fold higher tolerance)
18 | B4 | ++ (10-99 fold higher tolerance)
19 | B13 | ++ (10-99 fold higher tolerance)
20 | B14 | ++ (10-99 fold higher tolerance)
21 | B15 | + (1-9 fold higher tolerance)
22 | B5 | ++ (10-99 fold higher tolerance)
23 | B6 | +++ (100-999 fold higher tolerance)

Same assay, conditions: relative to MxPPO WT, light, up to 1000 μM (FIGS. 18-20)

Row | Molecule | Herbicide tolerance, sulfentrazone
24 | B1 | + (1-9 fold higher tolerance)
25 | B2 | + (1-9 fold higher tolerance)
26 | B9 | + (1-9 fold higher tolerance)
27 | B10 | + (1-9 fold higher tolerance)
28 | B11 | + (1-9 fold higher tolerance)
29 | B3 | + (1-9 fold higher tolerance)
30 | B12 | + (1-9 fold higher tolerance)
31 | B4 | + (1-9 fold higher tolerance)
32 | B13 | + (1-9 fold higher tolerance)
33 | B14 | ++ (10-99 fold higher tolerance)
34 | B15 | + (1-9 fold higher tolerance)
35 | B5 | + (1-9 fold higher tolerance)
36 | B6 | ++ (10-99 fold higher tolerance)

Tested on: MxPPO
Experiment: PPO enzyme activity of purified MBP-fused MxPPO wild type and variants
Format: biochemical, Myxococcus xanthus
Conditions: PPO enzyme activity of purified MxPPO protein, relative to wild type
Procedure: Thus, PPO proteins of wild type and variants were expressed as fused to MBP and were used for experiments.
The following process for purification of PPO protein was performed in a 4° C. cold room. […] The column was washed with 3 column volumes of buffer and the presence of protein in the washing solution was examined. When the protein was no longer detected, the washing procedure was terminated. Then, the MBP-PPO protein was eluted with approximately 2 column volumes of buffer containing 20 mM maltose. The protein concentration of each eluent was determined and the elution was stopped when the protein was no longer detected. Ten microliter of each fraction was investigated for protein quantification and SDS-PAGE analysis. The highly pure fractions of PPO protein variants were used for the enzyme assay.
Since protoporphyrinogen IX, a substrate of PPO protein, was not commercially available, it was chemically synthesized in the laboratory. Overall process was performed in dark under nitrogen stream. […] of protoporphyrin IX was dissolved in 20 ml of 20% (v/v) EtOH, and stirred under dark condition for 30 minutes. The obtained protoporphyrin IX solution was put into a 15 ml screw tube in an amount of 800 μl, and flushed with nitrogen gas for 5 minutes. To this, 1.5 g of sodium amalgam was added and vigorously shaken for 2 minutes. The lid was opened to exhaust hydrogen gas in the tube. Thereafter, the lid was closed and incubated for 3 minutes. The protoporphyrinogen IX solution was filtered using syringe and cellulose membrane filter. To 600 μl of the obtained protoporphyrinogen IX solution, approximately 300 μl of 2M MOPS [3-(N-morpholino) propanesulfonic acid] was added to adjust pH to 8.0. To determine the enzyme activity of PPO protein, a reaction mixture was prepared with the following composition (based on 10 ml): 50 mM Tris-Cl (pH 8.0); 50 mM NaCl; 0.04% (v/v) Tween 20; 40 mM glucose (0.072 g); 5 units glucose oxidase (16.6 mg); and 10 units catalase (1 μl).
Hundred and eighty microliters of a reaction mixture […] were placed in 96 well plates and 20 μl of purified PPO proteins were added. After 50 μl of the mineral oil was layered, the reaction was initiated by adding the substrate, protoporphyrinogen IX solution, to a final concentration of 50 μM. The reaction proceeded at room temperature for 30 min and the fluorescence of protoporphyrin IX was measured using Microplate reader (Sense, Hidex) (excitation: 405 nm; emission: 633 nm). To calculate the PPO enzyme activity, the protoporphyrinogen IX solution was kept open in the air overnight to oxidize the solution. To this, 2.7 N HCl was added, and the absorbance at 408 nm was measured. A standard curve was generated using standard protoporphyrin IX, and PPO activity was measured by calibration of protoporphyrin IX using the standard curve of protoporphyrin IX.
Activities of variants were presented relatively compared to that of wild type.

Row | Molecule | Activity (%)
37 | B7 | 40
38 | B1 | 47
39 | B2 | 68
40 | B9 | 38
41 | B10 | 41
42 | B11 | 78
43 | B3 | 75
44 | B12 | 80
45 | B4 | 71
46 | B13 | 37
47 | B14 | 45
48 | B15 | 38
49 | B8 | 87
50 | B5 | 71
51 | B6 | 49
